Measurements reported in the supplement of paper PMC9876800.

System: peptide library, one residue held at a place counted from the S/T acceptor
Assay: relative phosphorylation of the sub-library (ratio to the mean residue at this position); higher = residue favoured
Settings: human
In short: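 Relative sub-library phosphorylation is a ratio to the mean residue at the same position. Purified recombinant kinases were incubated under kinase-specific conditions with biotinylated degenerate peptide sub-libraries, each fixing one residue at one position around a central Ser/Thr, using 50 μM peptide and 50 μM ATP spiked with γ-32P-ATP for 90 min. Spots captured on streptavidin membranes were phosphorimaged and quantified by densitometry.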

Chain of MAP3K19, construct: aa941-end (Q56UN5 941-1328, looked up): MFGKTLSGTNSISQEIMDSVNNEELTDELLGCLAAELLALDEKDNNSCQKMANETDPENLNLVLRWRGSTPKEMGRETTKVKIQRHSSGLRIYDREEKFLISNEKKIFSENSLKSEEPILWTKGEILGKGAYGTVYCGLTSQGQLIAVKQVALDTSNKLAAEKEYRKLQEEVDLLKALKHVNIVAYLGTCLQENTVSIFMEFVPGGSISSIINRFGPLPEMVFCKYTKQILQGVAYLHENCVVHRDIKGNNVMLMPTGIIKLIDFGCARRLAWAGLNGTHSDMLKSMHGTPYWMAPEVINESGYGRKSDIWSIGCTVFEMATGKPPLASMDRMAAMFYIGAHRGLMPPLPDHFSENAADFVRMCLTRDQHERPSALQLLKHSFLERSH

MAP3K19, construct: aa941-end (from UniProt Q56UN5)
relative phosphorylation
Settings	at +1	at +2	at +3	at +4	at -1	at -2	at -3	at -4	at -5
A fixed	0.458	0.666	0.903	0.975	0.853	1.02	0.971	1.05	1.27
D fixed	0.354	0.662	0.8	0.995	1.51	1.22	1.46	1.14	1.18
E fixed	0.386	0.508	0.765	0.822	0.913	0.851	1.03	1.1	0.864
F fixed	1.33	0.605	0.974	0.784	0.832	1.67	0.921	1.04	1.08
G fixed	0.531	0.809	1.15	1.23	0.867	0.977	1.16	1.16	1.24
H fixed	0.999	1.35	1.1	1.12	1.25	1.34	1.08	1.06	1.13
I fixed	1.7	0.677	0.741	0.801	0.586	0.558	0.65	0.701	0.679
K fixed	0.396	2.23	1.32	1.38	1	0.363	0.877	0.834	0.892
L fixed	2.2	0.55	0.818	0.817	1.13	0.506	0.725	0.883	0.736
M fixed	1.56	0.625	0.803	0.863	1.03	0.821	0.95	0.969	0.87
N fixed	0.52	1.43	1.22	1.05	1.25	1.08	1.39	1.1	1.05
P fixed	0.202	0.646	1.27	1.34	1.08	0.687	0.953	1.06	1.01
Q fixed	0.485	0.932	0.986	1.26	0.941	0.856	1.04	0.936	0.818
R fixed	0.433	3	1.18	1.05	0.914	0.484	0.923	0.888	1.02
V fixed	1.17	0.883	0.919	0.756	0.615	0.599	0.606	0.81	0.879
W fixed	2.7	0.673	1.06	0.916	0.841	1.79	1.21	1.21	1.28
Y fixed	1.57	0.755	0.982	0.838	1.38	2.18	1.05	1.05	1.02
pThr fixed	0.786	1.14	1.09	1.08	0.755	0.741	1.09	1.13	1.19
pTyr fixed	0.541	0.47	0.675	0.662	1.35	0.832	1.09	0.908	0.807
